# Results reported in patent US7939292B2, “Modified heparinase III and methods of sequencing therewith” (Massachusetts Institute of Technology, priority 2000, dated 2011).
# Numbering of substitutions follows the chain as printed. Names and notes keep the numbering of the source.
# B1: H110A: recombinant heparinase III with histidine 110 mutated to alanine (protein)
# chain: MTTKIFKRIIVFAVIALSSGNILAQSSSITRKDFDHINLEYSGLEKVNKAVAAGNYDDAAKALLAYYREKSKAREPDFSNAEKPADIRQPIDKVTREMADKALVHQFQPAKGYGYFDYGKDINWQMWPVKDNEVRWQLHRVKWWQAMALVYHATGDEKYAREWVYQYSDWARKNPLGLSQDNDKFVWRPLEVSDRVQSLPPTFSLFVNSPAFTPAFLMEFLNSYHQQADYLSTHYAEQGNHRLFEAQRNLFAGVSFPEFKDSPRWRQTGISVLNTEIKKQVYADGMQFELSPIYHVAAIDIFLKAYGSAKRVNLEKEFPQSYVQTVENMIMALISISLPDYNTPMFGDSWITDKNFRMAQFASWARVFPANQAIKYFATDGKQGKAPNFLSKALSNAGFYTFRSGWDKNATVMVLKASPPGEFHAQPDNGTFELFIKGRNFTPDAGVFVYSGDEAIMKLRNWYRQTRIHSTLTLDNQNMVITKARQNKWETGNNLDVLTYTNPSYPNLDHQRSVLFINKKYFLVIDRAIGEATGNLGVHWQLKEDSNPVFDKTKNRVYTTYRDGNNLMIQSLNADRTSLNEEEGKVSYVYNKELKRPAFVFEKPKKNAGTQNFVSIVYPYDGQKAPEISIRENKGNDFEKGKLNLTLTINGKQQLVLVP
# B2: H139A: recombinant heparinase III with histidine 139 mutated to alanine (protein)
# chain: B1 chain with A110H, H139A
# Tests used:
# [1] = SAX-HPLC analysis of exhaustive heparan sulfate digests; assay type: biochemical; settings: SAX-HPLC, overnight 37° C.
# Method: Exhaustive digests of 3 mg/ml heparan sulfate in 50 mM sodium phosphate buffer, pH 7.6 were performed overnight at 37° C. for each of the mutants (20 μg protein). The reactions were loaded onto a Spherisorb S5 SAX column (Waters) and eluted using a linear gradient of 0.2-1.0 M NaCl, pH 3.5. The products were monitored at 232 nm and each of the major peaks was collected. To determine their composition, the collected fractions were analyzed by capillary electrophoresis and identified by comigration with known standards.
# As a control, the r-heparinase III construct without its putative signal sequence was expressed. The concentration and purity of all recombinant enzyme preparations were determined using SDS-PAGE. The recombinantly expressed heparinase III was also compared to the heparinase III isolated from F. heparinum to ensure that they were the same molecular weight. Heparinase III (20 μg/mL) was incubated with a 4 mg/mL of heparan sulfate overnight at 37° C. The reaction was loaded onto a SAX column and the saccharide products were eluted using a gradient of 0.2-1.0 M NaCl, pH 3.5 over 30 min. and monitored at 232 nm. (A) Heparan sulfate digested with heparinase III from F. heparinum. (B) Heparan sulfate digested with recombinant heparinase III. (C) Heparan sulfate digested with the H295A mutant enzyme. (D) Heparan sulfate digested with the H510A mutant enzyme. (E) Heparan sulfate digested with the H105A mutant enzyme.
# [2] = Heparinase III kinetic assay of r-heparinase III and histidine mutants; assay type: biochemical; settings: heparan sulfate; for Km: calculated assuming a molecular weight of 15 kDa
# Method: The activity of heparinase III was measured using a UV 232 nm assay similar to those reported for heparinase I and heparinase II (Godavarti, R., Cooney, C. L., Langer, R., and Sasisekharan, R. (1996) Biochemistry 35, 6846-52; Shriver, Z., Hu, Y., and Sasisekharan, R. (1998) J. Biol. Chem. 273, 10160-67; and Lohse, D. and Linhardt, R. J. (1992) J. Biol. Chem. 267, 781-87). Briefly, the increase in absorbance at 232 nm as a function of time was monitored under saturating substrate conditions. All assays were performed with heparan sulfate at a concentration of 2 mg/ml in 50 mM sodium phosphate, pH 7.6. The temperature for enzymatic activity measurements was kept constant at 35° C.
# In parallel to the mapping studies and to confirm the results of the chemical modification experiments, each of the thirteen histidine residues present in heparinase III was mutated to alanine. The recombinant heparinase III mutant proteins were expressed, purified, and assessed for enzymatic activity towards heparan sulfate (Table 2).
molecule,measurement,setting,value
B1,catalytic activity in overnight heparan sulfate digests,[1],retain their catalytic activity
same,kcat,[2],37 s⁻¹
same,Km,[2],9 µM
B2,catalytic activity in overnight heparan sulfate digests,[1],retain their catalytic activity
same,kcat,[2],68 s⁻¹
same,Km,[2],191 µM
